B1: TPR t1 (parent)
chain: GACCAAUCUGCCCUCAGAGCUCGAGAACAUCUUCGGAUGCAGAGGAGGCAGGCUUCGGUGGCGCGAUAGCGCCAACGUCCUCAACCUCCAAUGCAUCCCACCACAUGAUGAUGCCUGAAGAGCCUUGGUUUUUUG

Variants of: B1
Assay: polymerase ribozyme fitness, log enrichment relative to wild type (log ratio); higher = more active; in vitro selection for triplet polymerase activity
Procedure, shortened: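 A single round of triplicate in vitro selection, including frozen incubation at −7 °C, was applied to PCR-built, transcribed mutant libraries of each subunit of a heterodimeric triplet polymerase ribozyme. Illumina sequencing of input and output libraries retained genotypes with ≥10 input reads and ≥1 read per output. Fitness is the base-2 logarithm of genotype enrichment divided by wild-type enrichment, from inverse-variance-weighted replicate averages.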

Variant | polymerase ribozyme fitness (log ratio)
A18C G127C | -3.02
G17C C20A | -5.15
A18C A83G A105G C115U | -3.42
A18G C31A C62U U112A C115U G122U | -5.9
A18U A41U | -2.88
G17C G69U G120U G128A | -2.65
G17C G69U C79G | -4.17
G17C A84U | -4.87
A18G U112A | -0.0704
G17C U106A | -4.68
A18C G48U C56U A84G | -4.19
A18C A50U G60U C102A A119G G127U | -7.23
G17A G44U C49U U55G | -4.05
A18C U116A | -3.4
G17U C114G U132A | -5.35
A18C G77C | -2.76
A18G U129A | -4.53
G17C A18G G42U C80U U112C | -0.371
A18C A43G C72G C114U U129C | -4.8
A18C A46U G71A A84G G117C | -7.1
A18G G44U C86A C104U G120C | -3.98
A18G C114U | -3.96
A18G U54A C62U C88G A111C G113C U125A | -3.53
A18U A50C C70A G71A C123U | -6.84

Variant | polymerase ribozyme fitness (log ratio)
A18G G69U | -1.47
A18U A83U G120A | -2.42
G17A G48A A95C U112A C114A | -6.73
A18U A43G G60A U92C U112C | -0.561
A18G A27G | -4.94
A18C C73G C114U | -3.9
G17C C20A A43C C123A U129G | -3.55
G17U U78C C114G | -5.37
A18G A105G U112C G117C U132A | -3.97
A18G C72A | -2.98
G17U G63A U112A U125G | -3.29
A18C G52A C72U | -2.39
A18G G19U C49U C85U G110C U112G | -5.77
G17C C28U C85A G110A G120C | -2.19
G17A G69U A118G | 0.157
A18C G69C | -4.31
G17A U55A C72A A84G | -5.99
A18C C22G G63A U130G | -5.14
G17A U55A C72A | -3.74
A18C C72G C89G C114A U130A | -4.03
A18G C70A | -4.01
G17U U133G | -2.64
A18U A26G G71U G120A G127U | -5.55
A18G C20U A29U U32G C53A C97U | -2.71

Variant | polymerase ribozyme fitness (log ratio)
G17U G51A A121U | -3.76
A18C C101A | -3.03
A18C G71C A121C C123U C124U | -3.96
A18C G47U | -4.12
G17A U129A | -4.6
G17A G48C C49G A84U C124U | -2.52
A18C G48U G57U | -2.85
A18C A43U G63A U81A | -6.15
G17C C49A | -4.92
A18C G42U A46G G47A C86U | -2
G17U A43U A119U | -5.06
A18G G93C | -3.75
G17U C34A C124G U133A | -2.78
G17U C62U C73U C101A U130C | -3.73
A18U A46C G52A | -4.31
G17U G39U G110U | -4.99
A18C G60A C89G U106A | -3.6
A18C G61A C85G | -3.25
A18U A90C G120A | -0.842
G17U C89G | -2.98
G17A G122A | -3.37
G17U G120C | -1.09
A18C G61C | -2.87
A18C G71A C88U G93C | -4.58

Variant | polymerase ribozyme fitness (log ratio)
A18U A50U | -4.84
G17U G47A C49U C53U C72U | -4
A18G U21C G110A | -2.38
G17C U21G G60C C79U G117A C124G | -5.63
G17U C49A C56A | -4.3
G17U C28U G39A G110A | -2.46
A18C G61C C89G U116C C124A | -2.98
A18C A74C A84C C115U | -1.56
G17C G69U | -2.68
G17U G44U C49G | -5.1
A18G G113A | -1.78
A18G G113U | -4.5
A18U A66U | -3.87
G17C A26C A29G C62A G63U | -5.05
A18C U92C G117A G120U U129A | -5.88
G17C U55G C56A G63C G77U G113A | -5.71
G17A G63U | -3.9
G17A U78A G117A | -2.6
A18C C20G G47U G48U | -4.66
A18G G57U | -3.92
A18C A95U | -3.68
A18G G113U G128U U132A | -5.64
G17U U96A A119G | -1.01
G17U G71U U81C C89G A119G G128A | -4.58

Variant | polymerase ribozyme fitness (log ratio)
A18U A29G A43U G52A G60A C88U C94U | -5.06
A18C G42C G47A | -2.35
A18C C89G | -2.48
G17U G44A C62U A83U G117A | -5.24
A18C G71A | -4.91
A18G A43C U54A | -4.06
G17U G117A U129A | -4.12
G17C G36C C114G U131G | -4.72
A18C G113C | -3.55
G17C A83C A119G | -1.01
A18C C64U | -2.61
A18C U54G U87G A121U | -0.603
G17C G61U C114A | -5.45
A18U A43G | -1.5
A18C C56G C124A | -0.202
A18C G52A G61A A118G | -2.74
G17U G71U U132A | -2.7
G17U G42A | -3.86
A18C C72G U78C C104A C114G | -3.63
A18G G48U C72A U130G | -6.5
G17U A83U C123G | -1.3
G17U A37U G47U | -5.29
G17U C64U | -2.46
G17U A84U | -2.44

Variant | polymerase ribozyme fitness (log ratio)
A18G C20U A95C | -1.56
G17U U96G C98A G113U | -6.9
A18C G61C U112G | -6.42
A18G G63C C85U G110U | -3.81
G17A G52U | -4.1
G17U C72G | -2.35
A18G C73A U87G | -3.89
A18G C40U C53U A83U G93C | -5.03
A18G G19A A43C C56U C70U G110A | -4.41
A18C C40G C70A A83G C94U C115U U129G | -5.58
A18C A24G | -3.95
A18C U21A C72G G93C | -4.4
G17U G61A | -2.18
A18C G69C U133A | -4.77
A18C C56A C73U C86U A90G U106A A108C U112A | -5.34
A18G G42A G63U G113A U132A | -3.41
G17A G120C G127U | -1.24
A18G C20U G93U U109A C115A | -5.78
G17C C56G U96A | -5.36
G17C G113A | -6.34
G17A G71C | -3.64
A18G C49A U92A C123A | -4.5
G17A G127C | -4.54
G17C C22G G61U | -6.24

Variant | polymerase ribozyme fitness (log ratio)
A18C C40U C73U | -2.05
G17U C82G | -2.98
G17A G39U | -3.39
A18C C124G G128U | -3.83
G17U U55C | -2.57
A18U A41C C72G | -2.61
G17U G117A | -3.31
A18C U55A G57C C70G C124A | -6.54
G17U G52U A83G C85U G120U | -3.18
G17U G60U U81A | -3.3
G17U C49A G69C U109C C115A | -7.12
G17U G48U C56A U78C U87G U112A | -3.06
A18C C89G C114A U130A | -3.2
A18C C89G U106A | -2.89
G17U C62A | -2.83
A18C A43C G113A | -2.81
A18C U112G | -3
G17A U55C G61U G113A U130C | -5.74
G17A G93A A121C | -1.03
A18G A43U G71A | -4.88
A18C A83C | -1.95
G17U C34A G63A C79U C115A | -3.37
A18C C40A U78G C82G A121U U130A | -3.87

— the RNAGym collection of RNA variant scans (doi:10.1073/pnas.2313332121)
